Test results as given in patent US20220177549A1 (INVETX, published 2022).

Molecular target: T1, equine FcRn complex (equine, UniProt F6XZ61 19-292; P30441 21-118)
T1 construct: Heterodimer of p51 extracellular domain (Avi-tag, 8x His) and Flag-tagged beta-2-microglobulin from HEK293 cells; also called horse FcRn
Test: SPR (Biacore 8K+), pH 5.9, 25 C; FcRn captured by anti-His, IgG as analyte; 1:1 kinetic model

Fold increase over wild-type KD: 2.8 fold
Kd: 52.3 nM
B1: Equine G426Y (antibody)
chain: APELLGGPSVFIFPPNPKDTLMITRTPEVTCVVVDVSQENPDVKFNWYMDGVEVRTATTRPKEEQFNSTYRVVSVLRIQHQDWLSGKEFKCKVNNQALPQPIERTITKTKGRSQEPQVYVLAPHPDELSKSKVSVTCLVKDFYPPEINIEWQSNGQPELETKYSTTQAQQDSDGSYFLYSKLSVDRNRWQQGTTFTCYVMHEALHNHYTQKNVSKNPGK
